Tests used:
[1] = biological target: T1, Mouse PAR2 on Flp-In CHO cells (mouse, UniProt P55086 39-399); test: cell binding, flow cytometry/IntelliCyt
T1 construct: whole, on cells
T1 sequence (looked up): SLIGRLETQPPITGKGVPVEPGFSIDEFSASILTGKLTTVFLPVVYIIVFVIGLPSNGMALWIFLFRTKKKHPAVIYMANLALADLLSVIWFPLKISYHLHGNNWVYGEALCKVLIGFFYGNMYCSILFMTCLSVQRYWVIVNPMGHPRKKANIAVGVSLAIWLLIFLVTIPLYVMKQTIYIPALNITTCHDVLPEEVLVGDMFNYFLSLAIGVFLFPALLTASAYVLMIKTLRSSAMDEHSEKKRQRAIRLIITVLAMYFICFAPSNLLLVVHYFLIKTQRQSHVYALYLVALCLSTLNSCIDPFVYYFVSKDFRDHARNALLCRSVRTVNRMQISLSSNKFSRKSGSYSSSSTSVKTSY

[2] = biological target: T2, PAR2-3: P157: 1-377, glycosylated, pBacMamHisStrepII, full length (human, UniProt P55085 26-377); test: SPR Biacore T200; IgG captured on anti-human IgG, 250 nM PAR2 analyte; 1:1 model
T2 construct: detergent-solubilised analyte in SPR, or on infected cells in flow cytometry; also called FL-N PAR2 StaR; FL-N StaR; not shown: C-terminal StrepII and deca-histidine tags
T2 sequence: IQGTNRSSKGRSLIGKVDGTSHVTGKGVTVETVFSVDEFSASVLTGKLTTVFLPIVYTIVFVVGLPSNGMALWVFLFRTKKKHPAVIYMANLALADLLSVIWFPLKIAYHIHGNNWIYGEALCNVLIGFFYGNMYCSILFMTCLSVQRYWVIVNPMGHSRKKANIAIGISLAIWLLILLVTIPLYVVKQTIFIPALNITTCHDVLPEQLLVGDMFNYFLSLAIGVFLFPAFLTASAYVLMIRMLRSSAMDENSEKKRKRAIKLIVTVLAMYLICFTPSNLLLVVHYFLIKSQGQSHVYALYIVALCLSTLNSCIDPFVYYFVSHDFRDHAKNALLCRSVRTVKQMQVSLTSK
Method: (§1) The assay of PAR2 interaction with anti-PAR2 antibodies was carried out using a Biacore T200 instrument (GE Healthcare). Anti-human IgG antibody (Human Antibody Capture Kit, GE Healthcare) was immobilised by amine coupling on a sensor chip CM3 (GE Healthcare) to a surface density of 3500 to 4500 resonance units (RU). Immobilisation was carried out at 25° C. in HBS-EP+ buffer (GE Healthcare). The buffer was then changed to 50 mM HEPES, pH 7.5, 150 mM NaCl, 0.02% LMNG, 0.002% CHS. Each cycle of the PAR2-antibody interaction assay consisted of antibody capture (100 nM antibody injected for 2 min at a flow rate of 5 μL/min), PAR2 injection (blank or 250 nM, with contact and dissociation times of 2 and 3 minutes, respectively, at a flow rate of 20 μl/minute), and chip surface regeneration (30 seconds at 20 μl/minute) using the regeneration solution from Human Antibody Capture Kit (GE Healthcare). […] Measurements between each experimental data set were within the acceptable margins for this methodology.
The antibodies were captured on anti-human IgG chip surface followed by injection of 250 nM PAR2. The data were fitted to 1:1 interaction model.

[3] = biological target: T3, Wildtype human PAR2 expressed on cells (human, UniProt P55085 37-397); test: cell-based or functional assay
T3 sequence: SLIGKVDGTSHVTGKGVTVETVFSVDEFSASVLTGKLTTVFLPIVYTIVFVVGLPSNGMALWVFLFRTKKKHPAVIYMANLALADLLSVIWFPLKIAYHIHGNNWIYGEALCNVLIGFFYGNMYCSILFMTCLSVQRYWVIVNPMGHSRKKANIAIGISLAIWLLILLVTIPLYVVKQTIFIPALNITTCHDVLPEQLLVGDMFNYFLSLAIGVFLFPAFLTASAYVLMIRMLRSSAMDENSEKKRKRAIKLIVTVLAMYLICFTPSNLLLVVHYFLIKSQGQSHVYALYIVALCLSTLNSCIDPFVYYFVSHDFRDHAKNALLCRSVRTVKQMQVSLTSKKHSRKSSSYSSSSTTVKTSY

[4] = biological target: T2, PAR2-3: P157: 1-377, glycosylated, …; test: SPR; IgG immobilised, detergent solubilised FL-N PAR2 StaR as analyte
Method: For three purified IgG1f_AEASS clones Y021171, Y022054 and Y022063 affinities to human PAR2-3 variant (P157: 1-377, glycosylated, pBacMamHisStrepII, full length) were determined by SPR immobilizing the IgG and probing with detergent (LMNG/CHS) solubilized FL-N PAR2 StaR. Affinities were 22 nM and 20 nM for Y022063 and Y021171, respectively.
as §1

binding result [1]: no binding
Kd [2]: 2.5 nM
koff [2]: 0.00029 s⁻¹
kon [2]: 120000 M⁻¹ s⁻¹
% Max Inhibition AP, IP-One [3]: 17%
fold higher affinity compared to Y022063 and Y021171 [4]: 10 fold
B1: Y022054 (antibody, V domains shown)
VH: EVQLLESGGGLVQPGGSLRLSCAASGFTFSSYAISWVRQAPGKGLEWVSAISGSGGSTYYAESVKGRFTISRDNSKNTLYLQMNSLRAEDTAVYYCARGYAEFGVWGQGTLVTVSS
VL: DIQMTQSPSSLSASVGDRVTITCRASQSISSYLNWYQQKPGKAPKLLIYAASSLQSGVPSRFSGSGSGTDFTLTISSLQPEDFATYYCQQTWGGPQTFGQGTKVEIKR

Reference: patent publication US20250313621A1 (NXERA PHARMA UK, published 2025)
